Experimental data published in patent US6747136.

Target: recombinant conformational HCV E2 antigen (HCV genotype 1a) (hepatitis C virus, HCV1 (genotype 1a)) (UniProt P26664)
Assay: NOB assay: control Fab pre-mixed with E2 1a, E2 binding to MOLT-4 cells by flow cytometry; 50% reduction titer, Exp. I

Sequence of recombinant conformational HCV E2 antigen (HCV genotype 1a) (hepatitis C virus, HCV1 (genotype 1a)) (P26664 383-715): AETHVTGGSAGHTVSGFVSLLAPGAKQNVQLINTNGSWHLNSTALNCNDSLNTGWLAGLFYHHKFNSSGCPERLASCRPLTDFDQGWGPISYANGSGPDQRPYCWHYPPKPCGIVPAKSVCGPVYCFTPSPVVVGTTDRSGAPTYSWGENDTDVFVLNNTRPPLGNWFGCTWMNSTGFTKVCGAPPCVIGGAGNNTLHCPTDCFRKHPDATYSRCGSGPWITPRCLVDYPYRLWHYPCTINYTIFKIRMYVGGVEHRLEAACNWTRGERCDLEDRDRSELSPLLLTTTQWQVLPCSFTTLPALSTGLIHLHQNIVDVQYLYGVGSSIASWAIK

IC50: > 10 µg/mL
Substance: negative control Fab clone b12 directed to HIV-1 envelope glycoprotein gp120
